According to paper doi:10.1101/2022.06.23.497280 (bioRxiv, 2022):

T1: HU-B (UniProt P0ACF4 1-90, F47W)
T1 sequence: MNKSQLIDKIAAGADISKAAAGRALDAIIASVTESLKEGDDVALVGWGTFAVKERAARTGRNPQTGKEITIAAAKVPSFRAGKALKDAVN

B1: HU-A (F79W mutant of HU-A) (natural protein, E. coli)
chain: MNKTQLIDVIAEKAELSKTQAKAALESTLAAITESLKEGDAVQLVGFGTFKVNHRAERTGRNPQTGKEIKIAAANVPAWVSGKALKDAVK
B2: 4WJ DNA (four-way junction, cruciform) (structured_DNA)
DNA 1: CCCTATAACCCCTGCATTGAATTCCAGTCTGATAA
DNA 2: GTAGTCGTGATAGGTGCAGGGGTTATAGGG
DNA 3: AACAGTAGCTCTTATTCGAGCTCGCGCCCTATCACGACTA
DNA 4: TTTATCAGACTGGAATTCAAGCGCGAGCTCGAATAAGAGCTACTGT

Legend:
SEC = molecular target: the molecule itself; test: SEC
HU-A = HU-A (UniProt P0ACF0 1-90, F79W); test: EMSA
HU-B = molecular target: T1, HU-B; test: EMSA

Binder	stoichiometry N (SEC)	binding result (HU-A)	binding result (HU-B)
B1	2		
B2		binds	binds
